Patent US20250041455A1 (Regeneron, published 2025)

B1: 12799B scFv (VH-VK) (scFv)
chain: QITLKESGPTLVKPTQTLTLTCTFSGFSLSTSGVGVVWIRQPPGKALEWLALIYWNDHKRYSPSLGSRLTITKDTSKNQVVLTMTNMDPVDTATYYCAHYSGSYSYYYYGLDVWGQGTTVTVSSDIQMTQSPSSVSASVGDRVTITCRASQGIASWLAWYQQKPGKAPELLIYAASSLQGGVPSRFSGSGSGTDFTLTISSLQPEDFAIYYCQQANYFPWTFGQGTKVEIK
B2: 12812B scFv (VH-VK) (scFv)
chain: QVQLVQSGAEVKKPGSSVRVSCKASRGTFSSYAISWVRQAPGQGLEWMGGIIPIFGTANYAQKFLARVTITADESTSTAYMELSSLRSEDTAVYYCAREKGWNYFDYWGQGTLVTVSSDIQMTQSPPSVSASVGDRVTITCRASQGISSWLAWYQQKPGKAPKLLIYAASSLQSGVPSRFSGSGSGTDFTLTISSLQPEDFATYYCQQANSFPRTFGQGTKVEIK
B3: 12798B scFv (VH-VK) (scFv)
chain: EVQLVESGGDLVQPGRSLRLSCAASGFTFDDYAMHWVRQAPGKGLEWVSGISWNSATRVYADSVKGRFTISRDNAKNFLYLQMNSLRSEDTALYHCAKDMDISLGYYGLDVWGQGTTVTVSSEIVMTQSPATLSVSPGERATLSCRASQTVSSNLAWYQQKPGQAPRLLIYGSSSRATGIPARFSGSGSGTEFTLTISSLQSEDFAVYYCQQYNNWPPYTFGQGTKLEIK
B4: 69307 scFv (VH-VK) (scFv)
chain: EVQLVESGGGLVQPGGSLRLSCTASGFTFSNYWMTWVRQAPGKGLEWVANIKEDGSEKEYVDSVKGRFTISRDNAKNSLYLQMNSLRGEDTAVYYCARDGEQLVDYYYYYVMDVWGQGTTVTVSSDIQMTQSPSSVSASVGDRVTITCRASQGISSWLAWYQQKPGKAPKLLIYAASSLQSGVPSRFSGSGSGTDFTLTISSLQPEDFATYYCQKADSLPYAFGQGTKLEIK
B5: 12802B scFv (VH-VK) (scFv)
chain: QVQLVESGGGLVKPGGSLRLSCAASGFTFSDYFMSWIRQAPGKGLEWVSYISSTGSTINYADSVKGRFTISRDNVKNSLYLQMTSLRVEDTAVYYCTRDNWNYEYWGQGTLVTVSSEIVMTQSPATLSVSPGERATLSCRASQSVSINLAWYQQKPGQAPRLLIFVASTRATGIPARFSGSGSGTEFTLTISSLQSEDFATYYCQQYDIWPYTFGQGTKLEIK

Target: T1, hmm.hTfRC (REGN2431) (human, UniProt P02786 89-760)
T1 construct: also called hmm.hTfR(C89-F763); His-myc-myc-hTFRC ecto
T1 sequence (P02786 other isoform, or with tags, fused parts or gaps): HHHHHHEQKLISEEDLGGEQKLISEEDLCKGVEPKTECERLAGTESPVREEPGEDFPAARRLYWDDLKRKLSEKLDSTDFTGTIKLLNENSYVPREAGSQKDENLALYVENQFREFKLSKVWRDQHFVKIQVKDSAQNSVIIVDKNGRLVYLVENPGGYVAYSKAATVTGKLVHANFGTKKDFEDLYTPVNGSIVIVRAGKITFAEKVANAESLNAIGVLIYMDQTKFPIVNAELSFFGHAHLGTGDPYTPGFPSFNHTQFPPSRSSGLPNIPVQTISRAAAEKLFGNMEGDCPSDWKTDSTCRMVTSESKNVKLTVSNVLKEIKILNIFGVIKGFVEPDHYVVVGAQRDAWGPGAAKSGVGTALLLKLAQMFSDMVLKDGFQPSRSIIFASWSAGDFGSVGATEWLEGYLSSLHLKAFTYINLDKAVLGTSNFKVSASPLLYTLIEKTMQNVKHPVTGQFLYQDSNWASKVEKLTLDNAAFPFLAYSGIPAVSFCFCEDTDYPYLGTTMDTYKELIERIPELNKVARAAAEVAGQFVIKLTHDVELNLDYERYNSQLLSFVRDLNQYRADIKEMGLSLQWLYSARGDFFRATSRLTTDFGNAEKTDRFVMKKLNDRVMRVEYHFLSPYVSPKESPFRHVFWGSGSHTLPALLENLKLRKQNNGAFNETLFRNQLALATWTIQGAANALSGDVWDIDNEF
Assay: blocking ELISA; Hmm-hTFRC + supernatant on plate-bound holo-Tf

Row | % Blocking | Binder
1 | 26% | B1
2 | 19% | B2
3 | 0% | B3
4 | 9% | B4
5 | 11% | B5
